Source: US11872268B2, “Safe and effective beta-lactamase dosing for microbiome protection” (Theriva Biologics, Inc., priority 2015, dated 2024)
Read-outs that look alike come from different tables or passages of the source.

Tests used:
[1] = design: species or system human; details: in vivo
Method: (§1) This example evaluated the effects of two strengths of oral SYN-004 (75 mg or 150 mg) administered twice in six hours on the plasma pharmacokinetics (PK) and chyme concentrations of a single dose of ceftriaxone administered as an intravenous (IV) infusion (1 g infused over 30 minutes). Further, this example evaluated if SYN-004 was present in chyme, if there was absorption of SYN-004 into plasma, and the safety and tolerability of SYN-004 (75 mg or 150 mg) in combination with IV ceftriaxone.
This was a Phase 1, randomized, multi-center, open-label study. Ten otherwise healthy subjects with functioning ileostomies who were between the ages of 18 and 80 years, inclusive, were enrolled. As an overview, in the first treatment period (Period 1) all subjects received an IV infusion of 1 gram (g) ceftriaxone. In the second treatment period (Period 2) all subjects received an IV infusion of 1 g ceftriaxone and 2 doses of either 75 mg or 150 mg of SYN-004, according to the randomization schedule, and administered 30 minutes before and 5.5 hours after the ceftriaxone infusion. Subjects were screened for study participation within 45 days prior to Check-in (Day −1), and the entire duration of the study may be up to 64 days (from Screening to the end-of-study visit).
The active dosage form of SYN-004 being administered was a hard gelatin, size 0, opaque white capsule containing delayed-release mini-pellets. Subjects randomized to Treatment AB received two oral doses of SYN-004 75 mg (1×75 mg capsule) twice in one day on Day 1 of Period 2. Subjects randomized to Treatment AC received two oral doses of SYN-004 150 mg (2×75 mg capsules) twice in one day on Day 1 of Period 2.
Specifically, in Period 1, all subjects received an IV infusion of 1 g ceftriaxone administered over 30 minutes on Day 1. In Period 2, subjects again received an IV infusion of 1 g ceftriaxone administered over 30 minutes on Day 1, as well as two oral doses of SYN-004 (75 mg or 150 mg) 30 minutes before and 5.5 hours after the IV infusion of 1 g ceftriaxone. All subjects received an infusion of ceftriaxone 1 g over 30 minutes in Period 1 and a second identical, time matched infusion in Period 2. The exact time of day of dosing for consecutive subjects may be staggered (±1 hour) to accommodate sample collection logistics; however, the time of day of ceftriaxone administration on Day 1 in Periods 1 and 2 were consistent for each subject.
With respect to meals and fluid intake, on Day 1 in each period, subjects received a small non-fatty meal approximately 1 hour (7:00 AM) prior to administration of ceftriaxone and again 5 hours after the start of infusion (1:00 PM). Subjects received full meals at approximately 2 and 7.5 hours after the start of the infusion (10:00 AM and 3:30 PM), respectively. In order to generate sufficient chyme output, subjects drank 8 ounces of water or apple juice at the start of the infusion and at 0.5, 1, and 1.5 hours after the start of the infusion (i.e., every half hour between 8:00 AM and 9:30 AM); thereafter, subjects were encouraged to drink 8 ounces of water or apple juice hourly between 2 and 7 hours after the start of the infusion (10:00 AM to 3:00 PM).
On Day 1, Period 1, serial blood and chyme samples were collected from approximately 30 minutes pre-dose through approximately 7 hours for serial blood and 8.5 for chyme after the start of infusion for determination of ceftriaxone concentration. […]

[2] = Phase 1b/2a ileostomy study (Example 5): ceftriaxone plasma concentration; assay type: in vivo, human; details: 1 g IV with and without oral SYN-004 75 or 150 mg
Method: as §1
This was a Phase 1, randomized, multi-center, open-label study. Ten otherwise healthy subjects with functioning ileostomies who were between the ages of 18 and 80 years, inclusive, were enrolled. […]
Pharmacokinetics: Serial blood (5 mL each) and chyme samples (2 mL minimum) were collected on Day 1 of Period 1 and Period 2. The following PK parameters of SYN-004 and ceftriaxone were determined from the plasma and chyme concentration-time data for all evaluable subjects using non-compartmental methods: maximum observed plasma concentration (Cmax), area under the concentration-time curve from time 0 to the last quantifiable concentration (AUCt), and time to reach Cmax (Tmax) as applicable. In addition, area under the concentration-time curve from time 0 to infinity (AUC∞) was calculated where determinable.

SYN-004 = SYN-004 (Bacillus licheniformis, UniProt P00808, D288N); assay: SYN-004 activity in human intestinal chyme in the presence of beta-lactamase inhibitor (ceftriaxone by LC/MS-MS); assay type: biochemical; details: 20 mg/ml Sulbactam, 8 ug/ml SYN-004
SYN-004, sequence (P00808 44-307 D288N): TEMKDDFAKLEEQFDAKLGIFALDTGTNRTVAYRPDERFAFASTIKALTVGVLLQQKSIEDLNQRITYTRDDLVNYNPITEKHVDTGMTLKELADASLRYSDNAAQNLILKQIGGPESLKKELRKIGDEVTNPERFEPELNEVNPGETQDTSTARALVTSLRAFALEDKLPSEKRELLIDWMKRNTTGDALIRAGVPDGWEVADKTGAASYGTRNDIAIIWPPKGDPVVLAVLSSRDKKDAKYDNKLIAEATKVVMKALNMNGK
Method: Ceftriaxone (at 3 ug/ml or 1500 ug/ml) was mixed with human intestinal chyme alone, or with chyme plus SYN-004 (8 ug/ml) or with chyme plus the beta-lactamase inhibitor sulbactam, (20 mg/ml) or chyme plus both and then the samples were flash frozen. The flash frozen samples were thawed on ice and sulbactam was added to some samples, the protein was precipitated with acetonitrile and the samples were analyzed for ceftriaxone concentration by LC/MS-MS. The table below provides results from triplicate samples.

[3] = human, in vivo, po
Method: A Phase 1, double blind, placebo controlled study was carried out to assess the safety, tolerability, and pharmacokinetics (PK) of SYN-004 in healthy adult subjects. Specifically, a single dose of oral SYN-004 capsule (75 mg, 150 mg, 300 mg, 600 mg, or 750 mg) was administered to subjects. Blood samples were collected for PK evaluation and determination of anti-SYN-004 antibodies. A total of 40 healthy adult subjects were enrolled in the study with 6 active and 2 placebo subjects per cohort.

[4] = human, in vivo
Method: (§2) A Phase 1, double blind, randomized, placebo controlled study was carried out to assess the safety, tolerability, and PK of SYN-004 in healthy adult subjects. Specifically, multiple doses of oral SYN-004 capsules (75 mg, 150 mg, or 300 mg) were administered to the subjects at 4 doses per day for 7 days. Blood samples were collected for PK evaluation and determination of anti-SYN-004 antibodies. A total of 24 healthy adult subjects were enrolled in the study with 6 active and 2 placebo subjects per cohort.

[5] = design: species or system human; details: in vivo, po
Method: as §2

CO/N=C(\C(=O)N[C@@H]1C(=O)N2C(C(=O)O)=C(CSc3nc(=O)c(=O)[nH]n3C)CS[C@H]12)c1csc(N)n1 [Ceftriaxone]
time ceftriaxone appeared in the chyme ([1]; human): 1.5 to 2.5 h | time of second peak of ceftriaxone in chyme ([1]; human): 6 to 8 h | peak ceftriaxone in chyme ([1]; human, iv): 115 to 1400 µg/mL | plasma concentration of ceftriaxone, Period 1 versus Period 2 [2]: no significant difference

CC1(C)[C@H](C(=O)O)N2C(=O)C[C@H]2S1(=O)=O [Sulbactam, sulbactam]
inhibition of SYN-004 activity in intestinal chyme (SYN-004): did not substantially inhibit SYN-004 activity

SYN-004: beta-lactamase with the amino acid sequence of SEQ ID NO: 1; given orally as delayed-release capsule of enteric-coated pellets
systemic bioavailability [3]: not systemically bioavailable | Cmax (plasma) ([3]; 750 mg): 1.4 ng/mL | Tmax (plasma) ([3]; 750 mg): 1 to 4 h | systemic bioavailability [4]: not systemically bioavailable | anti-SYN-004 antibodies [5]: No anti-SYN-004 antibodies were detected | degradation of ceftriaxone in chyme [1]: effectively degraded ceftriaxone | time measurable SYN-004 began to be detectable in the chyme [1]: 5.5 h
